The labels stand for the following.
B1: Trichoplein keratin filament-binding protein (Homo sapiens), Q9BT92 (parent)
chain: MALPTLPSYWCSQQRLNQQLARQREQEARLRQQWEQNSRYFRMSDICSSKQAEWSSKTSYQRSMHAYQREKMKEEKRRSLEARREKLRQLMQEEQDLLARELEELRLSMNLQERRIREQHGKLKSAKEEQRKLIAEQLLYEHWKKNNPKLREMELDLHQKHVVNSWEMQKEEKKQQEATAEQENKRYENEYERARREALERMKAEEERRQLEDKLQAEALLQQMEELKLKEVEATKLKKEQENLLKQRWELERLEEERKQMEAFRQKAELGRFLRHQYNAQLSRRTQQIQEELEADRRILQALLEKEDESQRLHLARREQVMADVAWMKQAIEEQLQLERAREAELQMLLREEAKEMWEKREAEWARERSARDRLMSEVLTGRQQQIQEKIEQNRRAQEESLKHREQLIRNLEEVRELARREKEESEKLKSARKQELEAQVAERRLQAWEADQQEEEEEEEARRVEQLSDALLQQEAETMAEQGYRPKPYGHPKIAWN
partner: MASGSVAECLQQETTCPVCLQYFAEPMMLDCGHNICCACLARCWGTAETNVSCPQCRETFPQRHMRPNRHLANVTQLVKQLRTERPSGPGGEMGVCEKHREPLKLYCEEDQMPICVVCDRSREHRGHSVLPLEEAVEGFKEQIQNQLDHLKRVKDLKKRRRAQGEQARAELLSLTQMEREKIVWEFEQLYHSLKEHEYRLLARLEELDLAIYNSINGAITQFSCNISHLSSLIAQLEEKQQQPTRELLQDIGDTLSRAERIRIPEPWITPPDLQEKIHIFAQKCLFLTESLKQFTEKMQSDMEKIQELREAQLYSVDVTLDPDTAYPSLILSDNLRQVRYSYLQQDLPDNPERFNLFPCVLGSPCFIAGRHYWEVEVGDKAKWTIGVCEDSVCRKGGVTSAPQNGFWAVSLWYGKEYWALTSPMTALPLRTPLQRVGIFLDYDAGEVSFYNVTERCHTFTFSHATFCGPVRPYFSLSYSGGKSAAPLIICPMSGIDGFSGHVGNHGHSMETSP
B2: WASH complex subunit 3 (Homo sapiens), Q9Y3C0 (parent)
chain: MDEDGLPLMGSGIDLTKVPAIQQKRTVAFLNQFVVHTVQFLNRFSTVCEEKLADLSLRIQQIETTLNILDAKLSSIPGLDDVTVEVSPLNVTSVTNGAHPEATSEQPQQNSTQDSGLQESEVSAENILTVAKDPRYARYLKMVQVGVPVMAIRNKMISEGLDPDLLERPDAPVPDGESEKTVEESSDSESSFSD
partner: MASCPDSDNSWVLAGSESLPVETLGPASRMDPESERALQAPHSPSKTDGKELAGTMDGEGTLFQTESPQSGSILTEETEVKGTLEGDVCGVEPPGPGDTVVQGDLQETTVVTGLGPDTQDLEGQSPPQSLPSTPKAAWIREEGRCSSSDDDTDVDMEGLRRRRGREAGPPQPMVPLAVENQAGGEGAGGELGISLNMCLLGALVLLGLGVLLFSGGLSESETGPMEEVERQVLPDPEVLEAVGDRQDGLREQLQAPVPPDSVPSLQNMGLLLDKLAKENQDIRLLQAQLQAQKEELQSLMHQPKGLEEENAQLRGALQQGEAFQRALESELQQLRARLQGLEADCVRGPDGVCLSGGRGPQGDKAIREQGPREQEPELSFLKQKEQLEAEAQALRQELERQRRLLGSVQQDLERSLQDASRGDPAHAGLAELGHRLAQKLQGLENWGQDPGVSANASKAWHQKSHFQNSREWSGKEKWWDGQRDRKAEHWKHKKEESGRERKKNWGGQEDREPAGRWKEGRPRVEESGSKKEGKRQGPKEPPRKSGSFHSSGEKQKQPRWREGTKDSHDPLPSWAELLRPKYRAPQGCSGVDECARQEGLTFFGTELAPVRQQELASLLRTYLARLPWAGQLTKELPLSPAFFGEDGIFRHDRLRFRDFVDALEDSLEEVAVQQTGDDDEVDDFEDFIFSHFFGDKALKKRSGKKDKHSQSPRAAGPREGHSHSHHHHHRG
B3: E3 ubiquitin-protein ligase CCNB1IP1 (Homo sapiens), Q9NPC3 (parent)
chain: MSLCEDMLLCNYRKCRIKLSGYAWVTACSHIFCDQHGSGEFSRSPAICPACNSTLSGKLDIVRTELSPSEEYKAMVLAGLRPEIVLDISSRALAFWTYQVHQERLYQEYNFSKAEGHLKQMEKIYTQQIQSKDVELTSMKGEVTSMKKVLEEYKKKFSDISEKLMERNRQYQKLQGLYDSLRLRNITIANHEGTLEPSMIAQSGVLGFPLGNNSKFPLDNTPVRNRGDGDGDFQFRPFFAGSPTAPEPSNSFFSFVSPSRELEQQQVSSRAFKVKRI
partner: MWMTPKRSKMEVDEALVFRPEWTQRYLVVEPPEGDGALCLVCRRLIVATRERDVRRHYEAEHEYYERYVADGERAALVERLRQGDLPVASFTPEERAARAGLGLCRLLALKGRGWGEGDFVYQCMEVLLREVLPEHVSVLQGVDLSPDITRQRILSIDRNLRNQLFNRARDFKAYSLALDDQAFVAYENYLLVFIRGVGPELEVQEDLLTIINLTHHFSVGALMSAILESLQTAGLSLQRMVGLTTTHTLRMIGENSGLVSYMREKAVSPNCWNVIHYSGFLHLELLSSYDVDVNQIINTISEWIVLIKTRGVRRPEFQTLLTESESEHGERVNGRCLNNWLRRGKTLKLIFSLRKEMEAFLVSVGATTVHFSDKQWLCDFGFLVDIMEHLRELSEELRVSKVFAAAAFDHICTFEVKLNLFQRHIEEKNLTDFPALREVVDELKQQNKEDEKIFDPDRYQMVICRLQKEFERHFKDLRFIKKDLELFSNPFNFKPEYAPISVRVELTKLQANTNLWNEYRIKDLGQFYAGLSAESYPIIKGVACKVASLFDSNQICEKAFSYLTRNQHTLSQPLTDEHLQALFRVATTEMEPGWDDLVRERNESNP
B4: Cyclic AMP-dependent transcription factor ATF-2 (Homo sapiens), P15336 (parent)
chain: MKFKLHVNSARQYKDLWNMSDDKPFLCTAPGCGQRFTNEDHLAVHKHKHEMTLKFGPARNDSVIVADQTPTPTRFLKNCEEVGLFNELASPFENEFKKASEDDIKKMPLDLSPLATPIIRSKIEEPSVVETTHQDSPLPHPESTTSDEKEVPLAQTAQPTSAIVRPASLQVPNVLLTSSDSSVIIQQAVPSPTSSTVITQAPSSNRPIVPVPGPFPLLLHLPNGQTMPVAIPASITSSNVHVPAAVPLVRPVTMVPSVPGIPGPSSPQPVQSEAKMRLKAALTQQHPPVTNGDTVKGHGSGLVRTQSEESRPQSLQQPATSTTETPASPAHTTPQTQSTSGRRRRAANEDPDEKRRKFLERNRAAASRCRQKRKVWVQSLEKKAEDLSSLNGQLQSEVTLLRNEVAQLKQLLLAHKDCPVTAMQKKSGYHTADKDDSSEDISVPSSPHTEAIQHSSVSTSNGVSSTSKAEAVATSVLTQMADQSTEPALSQIVMAPSSQSQPSGS
B5: Coiled-coil domain-containing protein 60 (Homo sapiens), Q8IWA6 (parent)
chain: MTKVPATKKLQSSPNSGAVRPFYASENLRQVPDKPMKSIKYMDKEIINLKKDLIRSRFLIQSVKIGRGYFAILREETAKKKKQQQLQKLKEEERNKFQPAEKISEIHYGDTLLSTYDDEKLKTLGARVTRRPFTPIHSCIISPSLTEAHVEPLFRQLCALHWLLEALTIDHTHHTMKPVITCWNPKDPGGSKSTIKKINKDKSMGQKWEHFITAPKTKKFKIPTMRVTNRKPSRRGSTLSLSRASGGSSPQSSMISVNPGSDEPPSVNTQVTSSKDIEDNESSSTKPDEEPLYMNLQKLLEMVREDARRTVTIENGMQRKAPSILSVLKQNKSNSAYKEMQTTLKSSERSSSTSAESHIQPVQKKSKNRTNCDINIHYKSGVCNTMRAKFYSVAQEAGFCLQDKMEILMKRQEERGIQKFRAFVLVSNFQKDIAKMRHHISVVKGDAEEIADHWYFDLLSKLPEDLKNFRPAKKILVKLQKFGENLDLRIRPHVLLKVLQDLRIWELCSPDIAVAIEFVREHIIHMPQEDYISWLQSRINIPIGPYSALR
B6: Rab-like protein 2A (Homo sapiens), Q9UBK7 (parent)
chain: MAEDKTKPSELDQGKYDADDNVKIICLGDSAVGKSKLMERFLMDGFQPQQLSTYALTLYKHTATVDGKTILVDFWDTAGQERFQSMHASYYHKAHACIMVFDIQRKVTYRNLSTWYTELREFRPEIPCIVVANKIDDINVTQKSFNFAKKFSLPLYFVSAADGTNVVKLFNDAIRLAVSYKQNSQDFMDEIFQELENFSLEQEEEDVPDQEQSSSIETPSEEVASPHS
partner: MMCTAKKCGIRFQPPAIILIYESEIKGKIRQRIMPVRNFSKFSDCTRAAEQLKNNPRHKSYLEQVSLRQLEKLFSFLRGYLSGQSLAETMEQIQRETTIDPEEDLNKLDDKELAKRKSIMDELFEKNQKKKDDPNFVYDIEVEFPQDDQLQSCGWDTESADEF

In the first assay the parent is B1. The conditions noted are these: with tri27_human TRIM27, P14373.
As for K127R, the “effect of a mutation on the interaction” value is listed as “with no effect”.

In the next assay the parent is B2. To be noted: with pbip1_human PBXIP1, Q96AQ6.
Regarding F44L, the “effect of a mutation on the interaction” value is “with no effect”.

Variants of B3 are the subject of the next assay. The conditions noted are these: with epmip_human EPM2AIP1, Q7L775.
As for T187A, the “effect of a mutation on the interaction” value is recorded as “with no effect”.
For the variant R104H, the “effect of a mutation on the interaction” value is given as “disrupting interaction strength”.
On to N212D, for which the “effect of a mutation on the interaction” value is “with no effect”.
The same measure, in the same setting: then F41L, with “with no effect”; and Y106H, with “with no effect”.

Variants of B4 are the subject of the next assay. The conditions noted are these: with jun_human JUN.
Regarding S456L, the “effect of a mutation on the interaction” value was “with no effect”.

In a further assay the parent is B5. To be noted: with mtus2_human MTUS2, Q5JR59.
Sequence of mtus2_human MTUS2, Q5JR59 (Q5JR59 whole entry): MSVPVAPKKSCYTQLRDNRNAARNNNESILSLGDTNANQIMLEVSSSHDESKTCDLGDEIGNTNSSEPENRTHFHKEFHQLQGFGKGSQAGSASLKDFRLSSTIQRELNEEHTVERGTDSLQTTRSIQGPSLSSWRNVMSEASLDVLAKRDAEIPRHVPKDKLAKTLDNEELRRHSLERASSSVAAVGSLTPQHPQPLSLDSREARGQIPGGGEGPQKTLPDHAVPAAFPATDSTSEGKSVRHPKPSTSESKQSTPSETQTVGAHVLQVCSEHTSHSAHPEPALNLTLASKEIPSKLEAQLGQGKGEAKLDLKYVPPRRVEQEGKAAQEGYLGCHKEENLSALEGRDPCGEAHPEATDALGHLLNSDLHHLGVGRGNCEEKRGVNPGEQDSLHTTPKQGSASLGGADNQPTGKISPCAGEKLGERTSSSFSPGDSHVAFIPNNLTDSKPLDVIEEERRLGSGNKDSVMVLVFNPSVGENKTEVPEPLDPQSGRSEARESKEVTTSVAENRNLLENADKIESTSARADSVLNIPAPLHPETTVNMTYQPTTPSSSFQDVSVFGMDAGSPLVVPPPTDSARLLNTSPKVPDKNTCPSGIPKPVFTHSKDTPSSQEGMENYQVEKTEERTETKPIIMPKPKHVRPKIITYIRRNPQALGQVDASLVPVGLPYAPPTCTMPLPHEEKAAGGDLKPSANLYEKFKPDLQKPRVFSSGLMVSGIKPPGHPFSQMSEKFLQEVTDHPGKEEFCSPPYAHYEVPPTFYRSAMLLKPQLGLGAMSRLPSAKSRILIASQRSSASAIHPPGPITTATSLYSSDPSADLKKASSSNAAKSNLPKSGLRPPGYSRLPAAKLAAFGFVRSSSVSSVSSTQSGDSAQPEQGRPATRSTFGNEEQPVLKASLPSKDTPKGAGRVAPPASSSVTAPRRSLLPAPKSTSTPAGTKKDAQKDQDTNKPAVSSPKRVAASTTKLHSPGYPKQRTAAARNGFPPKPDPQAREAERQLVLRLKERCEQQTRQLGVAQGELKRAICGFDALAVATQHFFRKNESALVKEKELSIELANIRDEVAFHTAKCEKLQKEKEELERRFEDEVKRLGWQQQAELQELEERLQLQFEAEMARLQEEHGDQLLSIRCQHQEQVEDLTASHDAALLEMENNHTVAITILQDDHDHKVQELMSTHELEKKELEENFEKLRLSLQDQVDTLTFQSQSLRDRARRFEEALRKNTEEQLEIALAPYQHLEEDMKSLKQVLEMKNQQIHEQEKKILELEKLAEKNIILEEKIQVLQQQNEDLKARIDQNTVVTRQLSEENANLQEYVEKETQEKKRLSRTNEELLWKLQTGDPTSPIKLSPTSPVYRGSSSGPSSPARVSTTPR
On to I46V, for which the “effect of a mutation on the interaction” value is on record as “disrupting interaction strength”.

Variants of B6 are the subject of the next assay. To be noted: with cep19_human CEP19, Q96LK0.
Turning to R82Q, the “effect of a mutation on the interaction” value is “with no effect”.
Consider L119F, for which the “effect of a mutation on the interaction” value was “with no effect”.

The values are drawn from IntAct's records for PubMed 31515488.
